Measured values reported in paper doi:10.1101/820381v1 (biorxiv, 2019).
Each block holds one molecule with its values, some of them ahead of it.

Tests used:
[1] = target: T1, OPR3 (12-oxophytodienoic acid reductase 3) (Arabidopsis thaliana, UniProt Q9FUP0); assay: intrinsic Trp fluorescence quenching; assay type: binding; settings: 0.75 µmol/L OPR3, 40 mmol/L KPi pH 7.2, 25°C
[2] = target: T1, OPR3 (12-oxophytodienoic acid reductase 3); settings: NADPH co-substrate, 40 mmol/L KPi pH 7.2, 25°C, aerobic
[3] = test system: [O]C1=C(O)[C@@H]([C@@H](O)CO)OC1=O; assay: purified protein; settings: pH 7.8
O=C1C=CCC1 = assay: purified protein; settings: pH 7.2; 25.0 °C
[4] = test system: CC/C=C\C[C@@H]1C(=O)C=C[C@@H]1CCCCCCCC(=O)O; assay: purified protein; settings: pH 7.2; 25.0 °C

T1 sequence (Q9FUP0 whole entry): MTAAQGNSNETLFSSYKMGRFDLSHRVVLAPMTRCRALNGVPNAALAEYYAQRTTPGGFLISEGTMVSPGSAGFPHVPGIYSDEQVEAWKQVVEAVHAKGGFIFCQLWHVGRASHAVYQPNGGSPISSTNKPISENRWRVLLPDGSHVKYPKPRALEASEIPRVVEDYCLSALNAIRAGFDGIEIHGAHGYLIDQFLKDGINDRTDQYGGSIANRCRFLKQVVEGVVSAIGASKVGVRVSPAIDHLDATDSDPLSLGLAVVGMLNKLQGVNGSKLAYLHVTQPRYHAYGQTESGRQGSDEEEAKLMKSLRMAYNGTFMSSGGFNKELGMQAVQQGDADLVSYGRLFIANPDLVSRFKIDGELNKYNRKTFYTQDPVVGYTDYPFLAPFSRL

% quenching at 607 μmol/L [1]: 54.0±0.4%
Molecule: CC/C=C\C[C@@H]1C(=O)C=C[C@@H]1CCCCCCCC(=O)O [12-OPDA]

Molecule: C=CC(C)=O [MVK]
Km [2]: 38.5 ± 14 µM

Molecule: OPR3 (12-oxophytodienoic acid reductase 3) (Arabidopsis thaliana)
Km [3]: 1 µM
Km (O=C1C=CCC1): 1967 ± 825 µM
Km [4]: 28.3 ± 8.5 µM
